The values that follow come from patent publication US20140065128A1.

Assay [1] has as its target Human IgE in whole blood of healthy volunteers (on basophils). The assay is described as follows: cell-based or functional assay.
Assay [2] has as its target Human myeloma IgE (human) (UniProt P01854). The assay is described as follows: SPR (BIAcore 2000, 25 C): GST-EndoS (E235Q) amine-coupled to a CM5 chip, human myeloma IgE injected at 10-1.25 ug/ml; 1:1 Langmuir fit, KD from mean rate constants. On the technique in general: Surface plasmon resonance follows binding to a sensor surface in real time, without labels.

pKd: −log10 of the molar value.

As for “GST-EndoS (enzymatically active) (from UniProt Q99Y92 37-995) (enzyme)”, the CD203c+ cells among CD123+, HLA-DR- basophils after chicken anti-IgE stimulation of whole blood (FACS); untreated blood 83% in assay [1] turned out to be 15%.

As usually defined, the pKd is the Kd on a negative log10 scale, so that one unit is a factor of ten. The substance “GST-EndoS (E235Q), enzymatically inactive form of EndoS from Streptococcus pyogenes (from UniProt Q99Y92 37-995) (enzyme)” showed a pKd in assay [2] of 6.88.
